Source: patent US20120020988A1 (Hoffmann-La Roche, published 2012)
Like-named read-outs stand apart in the source and are kept apart here.

Legend:
human TSLPR (on cells) [1] = target: T1, human TSLPR (on cells) (human, UniProt Q9HC73 23-371); experiment: cell-based or functional assay
T1 sequence: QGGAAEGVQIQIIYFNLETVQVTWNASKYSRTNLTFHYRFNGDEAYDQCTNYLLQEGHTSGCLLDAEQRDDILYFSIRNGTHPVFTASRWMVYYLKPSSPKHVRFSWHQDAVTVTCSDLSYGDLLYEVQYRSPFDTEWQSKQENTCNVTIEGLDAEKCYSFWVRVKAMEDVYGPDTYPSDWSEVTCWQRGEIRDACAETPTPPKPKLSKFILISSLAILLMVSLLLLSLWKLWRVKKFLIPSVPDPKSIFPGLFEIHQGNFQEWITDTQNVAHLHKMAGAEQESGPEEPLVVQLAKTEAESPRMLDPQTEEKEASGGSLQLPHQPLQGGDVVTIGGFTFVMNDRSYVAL

[2] = target: TSLPR-ECD (extracellular domain of TSLPR) (human) (UniProt Q9HC73); experiment: SPR (Biacore 3000), antibody captured by anti-IgG, TSLPR-ECD as analyte, 25 °C, 1:1 Langmuir fit
[3] = target: T2, Recombinant human TSLPR-Fc (human, UniProt Q9HC73 23-231); experiment: blocking ELISA: antibody on coated TSLPR-Fc, then TSLP + IL7Rα-Fc; TSLP binding detected
T2 construct: also called recombinant human soluble TSLPR-Fc fusion protein; not shown: Fc part
T2 sequence: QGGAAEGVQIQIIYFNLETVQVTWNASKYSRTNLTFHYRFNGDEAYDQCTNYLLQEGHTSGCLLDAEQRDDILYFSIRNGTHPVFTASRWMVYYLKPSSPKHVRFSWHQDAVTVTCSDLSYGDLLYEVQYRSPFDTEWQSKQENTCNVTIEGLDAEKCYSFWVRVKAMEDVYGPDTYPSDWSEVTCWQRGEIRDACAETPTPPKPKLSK
Experimental: Recombinant human TSLPR-Fc was coated to 96-well Nunc Maxisorp™ plate wells by incubating 50 μl of a 0.2 μg/ml solution of TSLPR-Fc in PBS per well for 1 h at RT. Subsequently the wells were blocked with 1% Crotein™ C in PBS (blocking buffer) for 1 h at RT, followed by two washes with wash buffer (ice-cold PBS/0.05% TWEEN® 20). 50 μl of anti-TSLPR antibody solution (antibodies and according to WO 2007/112146) were then added to the wells and incubated for 2 h at 4° C., followed by four wash steps. After addition of 50 μl of a mixture of human recombinant TSLP (12.5 ng/ml) and human recombinant IL7Rα-Fc (1 μg/ml) in blocking buffer, the plate was shaken for 1 h at 4° C., followed by further four wash steps. TSLP binding was detected by incubation with 50 μl of biotinylated anti-TSLP antibody (0.08 μg/ml in blocking buffer), followed by four washes and incubation with 50 μl of streptavidin-HRP (0.25 μg/ml in blocking buffer) per well. After another four washing steps, color was developed by incubation with 50 μl of 3,3,5,5-Tetramethylbenzidine substrate, followed by addition of 50 μl of 1 N HCl. Absorbance was read out at 450 and 620 nm.

human TSLPR (on cells) [4] = target: T1, human TSLPR (on cells); experiment: cell-based or functional assay; remark: listed apart in the source
human TSLPR (on cells) [5] = target: T1, human TSLPR (on cells); experiment: FACS on BA/F3 cells stably overexpressing human TSLPR and IL-7Rα
Experimental: (§1) BA/F3-TSLPR/IL7Rα or Cyno-TSLPR-HEK293 cells were starved from TSLP overnight, harvested by centrifugation, washed once in PBS and re-suspended in FACS buffer (PBS/5% FCS) at 10⁶/ml. 100 μl of cell suspension were incubated in a 96-well round-bottom plate well together with 100 μl of anti-TSLPR antibody solution for 45 minutes on ice. After three washes with FACS buffer, cells were re-suspended in a solution of PE-coupled anti-hamster-F(ab)2 (Dianova, Hamburg, Germany, #127-115-160) (1:200 in FACS buffer) and incubated for 30 minutes on ice. After three further washes cells were re-suspended in 200 μl of FACS buffer and measured on a FACSCanto™ flow cytometer (10,000 cells, flow rate 3).

[6] = target: T3, Cynomolgous TSLPR (on HEK293 cells) (Cynomolgous monkey); experiment: FACS on HEK293 cells transiently transfected with Cynomolgous TSLPR
T3 construct: also called Cyno-TSLPR-HEK293; HEK-Cyno-TSLPR
T3 chain: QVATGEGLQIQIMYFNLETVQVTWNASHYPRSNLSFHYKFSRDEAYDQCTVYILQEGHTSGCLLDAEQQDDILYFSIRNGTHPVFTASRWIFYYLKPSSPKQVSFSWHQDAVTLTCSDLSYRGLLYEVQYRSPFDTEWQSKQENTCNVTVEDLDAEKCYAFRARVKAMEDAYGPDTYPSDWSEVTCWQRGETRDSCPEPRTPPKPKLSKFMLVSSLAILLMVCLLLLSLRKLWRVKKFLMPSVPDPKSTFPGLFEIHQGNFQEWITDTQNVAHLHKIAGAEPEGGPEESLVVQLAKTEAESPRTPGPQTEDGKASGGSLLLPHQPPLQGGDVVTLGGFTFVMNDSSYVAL
Experimental: as §1

[7] = target: T4, TSLPR-ECD (extracellular domain of TSLPR) (human, UniProt Q9HC73 23-231); experiment: SPR (Biacore 3000), antibody captured by anti-IgG, TSLPR-ECD as analyte, 25 °C, 1:1 Langmuir fit
T4 construct: Obtained by cleavage of a TSLPR-Fc fusion protein expressed in HEK cells; also called analyte 2
T4 sequence: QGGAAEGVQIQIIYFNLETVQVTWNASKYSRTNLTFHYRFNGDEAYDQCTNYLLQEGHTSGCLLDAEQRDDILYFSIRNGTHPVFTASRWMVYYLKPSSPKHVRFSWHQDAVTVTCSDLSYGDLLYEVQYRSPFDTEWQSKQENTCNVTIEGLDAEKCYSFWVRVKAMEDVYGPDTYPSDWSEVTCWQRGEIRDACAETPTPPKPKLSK
Experimental: The binding properties of monoclonal anti-TSLPR antibodies and according to WO 2007/112146 were analyzed by surface plasmon resonance (SPR) technology using a Biacore 3000 instrument. The affinity was determined using an assay setup with capturing antibodies. These capturing antibodies (goat anti-human-IgG, goat anti-hamster-IgG) were immobilized on the surface of a CM5 biosensorchip using amine coupling chemistry. The capturing antibodies were injected in sodium acetate buffer, pH 5.0 at a concentration of 5 μg/ml aiming for a surface density of approx 1000 RU. Remaining reactive groups were inactivated by an injection of 1 M ethanolamine/HCl pH 8.5. Running buffer was HBS-P. The anti-TSLPR antibodies (analyte 1) were diluted in HBS-P to a concentration of 25 nM and injected at a flow rate of 5 μl/min for 3 minutes, resulting in a binding signal of 100-400RU dependent on the antibodies applied. The extracellular domain of TSLPR, TSLPR-ECD, obtained by cleavage of a TSLPR-Fc fusion protein expressed in HEK cells (analyte 2), was injected in concentrations ranging from 0-50 nM at a flow rate of 20 μl/min. The contact time (association phase) was 3 min for TSLPR followed by 5 minutes of dissociation. Regeneration solution 10 mM glycine HCl pH1.5 or 10 mM glycine HCl pH1.7 was injected twice at a flow rate of 10 μl/min for 1 min to remove any bound protein after each binding cycle. All interactions were performed at 25° C. (standard temperature). Signals were detected at a detection rate of 1 signal/second. The signals from a reference flow cell (FC1: same capturing antibody and addition of control antibody) and from blank buffer injections were subtracted and data were evaluated. All binding curves were fitted to a 1:1 Langmuir binding model. Association rate constant (ka), dissociation rate constant (kd) and the dissociation equilibrium constant (KD) were calculated accordingly.

human TSLPR (on cells) [8] = target: T1, human TSLPR (on cells); experiment: cell-based or functional assay; remark: listed apart in the source

IC50 proliferation (example 4) (human TSLPR (on cells) [1]) [ng/mL]	Kd [2] [nM]	IC50 [3] [µg/mL]	IC50 DC assay (example 7), TARC secretion (human TSLPR (on cells) [4]) [ng/mL]	IC50 proliferation (example 4) (human TSLPR (on cells) [4]) [ng/mL]	EC50 (human TSLPR (on cells) [5]) [µg/mL]	EC50 [6] [µg/mL]	Kd [7] [nM]	IC50, IL-5 release in Th2 polarization assay (human TSLPR (on cells) [8]) [nM]	IC50, IL-13 release in Th2 polarization assay (human TSLPR (on cells) [8]) [nM]	IC50, TARC secretion by human dendritic cells stimulated with TSLP (human TSLPR (on cells) [8]) [nM]	average IC50, mast cell cytokine production (IL-13, IL-5, GMCSF) (human TSLPR (on cells) [8]) [nM]	Binder
84	2.97	0.0152										1D6.C9 (WO2007/112146) (antibody, from another filing, V domains shown) VH: QIQLGQSGPELKKPGETVKISCKASGYTFTTYGMSWVKQAPGKGLQWMGWINTYSGVPRYADDFKGRFAFSLETSASTAYLQIYNLKNEDTATYFCTREGFITTVVGAAGRFVYWGQGTLVTVSA VL: DIVMTQSHKFMSTSVGDRVSITCKASQDVGTAVAWYQQKPGQSPKLLIYWASTRHTGVPDRFTGSGSGTDFTLTLNNVQSEDLADYFCQQYSTYPTFGSGTKLELKR
		0.0122	86	34	0.0118	0.0086	2.45					TSLPR-012_166, CDR grafted (antibody, V domains shown, Humanized (CDR grafted) variant of hamster TSLPR-012; human kappa and human IgG1 or IgG4(S228P,L235E) appear only as embodiments) VH: QVQLQESGPGLVKPSQTLSLTCTVSGFSITTSGYYWSWIRQHPGKGLEWIGYIGYNSKTYYSPSLKSRVTISRDTSKNQFSLKLSSVTAADTAVYYCARSLYGGYKDAFDSWGQGTLVTVSS VL: DIQMTQSPSSLSASVGDRVTITCRASQSIGTSLHWYQHRPGETPKLLIKFASRSISGVPSRFSGSGSGTDFTLTISSLQPEDFATYYCQQSPGFPPTFGQGTKLEIKR
		0.0136	23	25	0.0149	0.0103	0.6					TSLPR-012_189, CDR grafted (antibody, V domains shown, Humanized (CDR grafted) variant of hamster TSLPR-012; human kappa and human IgG1 or IgG4(S228P,L235E) appear only as embodiments) VH: QVQLVESGGGLVKPGGSLRLSCAASGFSITTSGYYWTWIRQFPGKGLEWMGYIGYNSKTYYNPALKSRITISRDNAKNSLYLQMNSLRAEDTAVYYCARSLYGGYKDAFDSWGQGTLVTVSS VL: EIVMTQSPATLSVSPGERATLSCRASQSIGTSLHWYQQKPGQAPRLLIKFASRSITGIPARFSGSGSGTEFTLTISSLQSEDFAVYYCQQSPGFPPTFGQGTKLEIKR
		0.0134	42	26	0.0157	0.0108	0.5					TSLPR-012_75, CDR grafted (antibody, V domains shown, Humanized (CDR grafted) variant of hamster TSLPR-012; human kappa and human IgG1 or IgG4(S228P,L235E) appear only as embodiments) VH: QVQLVESGGGLVKPGGSLRLSCAASGFSITTSGYYWTWIRQFPGKGLEWMGYIGYNSKTYYNPALKSRITISRDNAKNSLYLQMNSLRAEDTAVYYCARSLYGGYKDAFDSWGQGTLVTVSS VL: EIVLTQSPDFQSVTPKEKVTITCRASQSIGTSLHWYQQKPDQSPKLLIKFASRSISGVPSRFSGSGSGTDFTLTINSLEAEDAATYYCQQSPGFPPTFGQGTKLEIKR
		0.0104	46	37	0.0133	0.0097	0.87	1.62	2.57	2.4	0.04 to 0.06	TSLPR-012_141, CDR grafted (antibody, V domains shown, Humanized (CDR grafted) variant of hamster TSLPR-012; human kappa and human IgG1 or IgG4(S228P,L235E) appear only as embodiments) VH: QVQLVESGGGLVKPGGSLRLSCAASGFSITTSGYYWTWIRQFPGKGLEWMGYIGYNSKTYYNPALKSRITISRDNAKNSLYLQMNSLRAEDTAVYYCARSLYGGYKDAFDSWGQGTLVTVSS VL: DIQMTQSPSSLSASVGDRVTITCRASQSIGTSLHWYQQKPGKAPKLLIKFASRLQSGVPSRFSGSGSGTDFTLTISSLQPEDFATYYCQQSPGFPPTFGQGTKLEIKR
		0.0088	129	26	0.0156	0.0118	0.25					TSLPR-012 (hamster) (antibody, V domains shown, Parent Armenian hamster monoclonal antibody; the hamster constant regions are not; also called TSLP-012; hamster antibody TSLPR-012) VH: QIQLQESGPGLVKPSQSLSLTCSVTGFSITTSGYYWTWIRQFPGKKLEWMGYIGYNSKTYYNPSLKSRISITRDTSKNQFLLHLNSVTTEDTATYYCARSLYGGYKDAFDSWGQGTLVTVSS VL: DVVLTQTPATLSAIPGERVTMTCKASQSIGTSLHWYQHRPNETPRLLIKFASRSITGIPSRFSGSGSGTDFTLGINNLEAEDFAIYYCQQSPGFPPTFGSGTKLEINR
